The values that follow come from paper PMC4059961, “The transcriptional network of WRKY53 in cereals links oxidative responses to biotic and abiotic stress inputs”.

This series has as its target SUMO::TaWRKY53 (Triticum aestivum L. cv. Gamtoos-R). Put plainly: EMSA; Probe EMSA: 10 mM Tris, 50 mM KCl, 1 mM DTT, pH 7.5, 20 min, room temperature; 1-kb EMSA: 10 mM Tris, 100 mM KCl, 1 mM EDTA, 0.1 mM DTT, 5% glycerol, 0.01 mg/mL BSA, pH 7.5, room temperature. Conditions: protein: recombinant; tags: N-terminal 6xHis-SUMO; label: biotin; blunt. Background: A gel shift assay detects complexes by their altered migration in electrophoresis.

SUMO::TaWRKY53 (Triticum aestivum L. cv. Gamtoos-R), sequence (chain, as listed by the source): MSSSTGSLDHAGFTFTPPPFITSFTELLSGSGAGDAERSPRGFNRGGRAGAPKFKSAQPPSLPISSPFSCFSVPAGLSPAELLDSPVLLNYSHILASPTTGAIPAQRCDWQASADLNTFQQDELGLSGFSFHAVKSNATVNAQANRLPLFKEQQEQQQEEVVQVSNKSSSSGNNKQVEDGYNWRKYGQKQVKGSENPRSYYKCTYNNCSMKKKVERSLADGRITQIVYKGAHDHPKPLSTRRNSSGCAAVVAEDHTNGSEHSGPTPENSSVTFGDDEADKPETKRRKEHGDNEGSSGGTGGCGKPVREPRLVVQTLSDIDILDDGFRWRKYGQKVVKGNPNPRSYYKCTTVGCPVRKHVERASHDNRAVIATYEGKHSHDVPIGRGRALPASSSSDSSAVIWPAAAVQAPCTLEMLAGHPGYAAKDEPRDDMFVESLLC

B1: POC1 promoter probe (dsDNA)
DNA 1: ACGTAAATTTTTTGAATAAGACAAATGGTCAAACATGTAAGAAAAGAAAGTCAACGGCGTCATCTATTTAAAAAACGGAT
DNA 2: ATCCGTTTTTTAAATAGATGACGCCGTTGACTTTCTTTTCTTACATGTTTGACCATTTGTCTTATTCAAAAAATTTACGT
On to B1, for which the binding result is on record as “binds”.

B2: ORK10 promoter probe (dsDNA)
DNA 1: ATCTGGTCAACAATGTATTACACACTGCTTTGACTACTTCCCCCAAAAAAGTACACACTGCTTTGACTCAGGTCAAACTT
DNA 2: AAGTTTGACCTGAGTCAAAGCAGTGTGTACTTTTTTGGGGGAAGTAGTCAAAGCAGTGTGTAATACATTGTTGACCAGAT
For the molecule B2, the binding result is recorded as “binds”.
